# Results published in the nanobody polyreactivity screen of Harvey et al. (2022).
# Experiment: yeast display, Sf9 membrane polyspecificity reagent, FACS + sequencing; frameworks hold sequencing errors
# Method in brief: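 Nanobodies from a synthetic yeast display library (Saccharomyces cerevisiae BJ5465), induced 36–48 hours with galactose, were stained 1 hour at 4 °C with 10% biotinylated, detergent-solubilized Sf9 membrane reagent, enriched on streptavidin microbeads, then FACS-sorted. Anti-HA (expression) and streptavidin (reagent binding) fluorescence set low and high (top ~1%) gates. Polyreactivity labels come from the gate of origin. Genes were colony-PCR amplified, MiSeq 2 × 250 sequenced and filtered by CDR length.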
row,Sequence,polyreactivity (PSR sort gate)
1,QVQLVESGGGLVQAGGSLRLSCAASGLTFPYYVMGWYRQAPGKERELVAAISSSGGSTYYADSVKGRFTISRDNAKNTVYLQMNSLKPEDTAVYYCNALGHFSKIATYDYWGQGTQVTVSS,low polyreactivity
2,QVQLVESGGGLVQAGGSLRLSCAASGLTFQWNAMGWYRQAPGKERELVAGITDIGDSTYYADSVKGRFTISRDNAKNTVYFQMNSLKPEDTAVYYCNATSGYKHAWRSENGYWGQGTQVTVSS,low polyreactivity
3,QVQLVESGGGLVQAGGSLRLSCAASGLTFQYYTMGWYRQAPGKERELVAAINWSGGSTYYADSVKGRFTISRDNAKNTVYLQMNSLKPVDTAVYYCNAVRFVEHDYWGQGTQVTVSS,high polyreactivity
4,QVQLVESGGGLVQAGGSLRLSCAASGLTFRINTMGWYRQAPGKERELVASISKSGSSTYYADSVKGRFTISRDNAKNTVYLQMNSLKPEDTAVYYCAARTRTLYVTYYSWGQGTQVTVSS,high polyreactivity
5,QVQLVESGGGLVQAGGSLRLSCAASGLTFRKYAMGWYRQAPGKERELVAAITGSGGRTYYADSVKGRFTISRDNAKNTVYLQMNSLKPEDTAVYYCAADDYFHDDYCGQGTQVTVSS,high polyreactivity
6,QVQLVESGGGLVQAGGSLRLSCAASGLTFRKYAMGWYRQAPGKERELVATISRNGGSTYFADSVKGRFTISRDNAKNTVYLQMNSLKPEDTAVYYCAADYYTYDYAGYGYWGQGTQVTVSS,high polyreactivity
7,QVQLVESGGGLVQAGGSLRLSCAASGLTFRRYAMGWYRQAPGKERELVAAISSSGGNTYYADSVKGRFTISRDNAKNTVYLQMNSLQPEDTAVYYCATRYKSPSFDYWGQGTQVTVSS,high polyreactivity
8,QVQLVESGGGLVQAGGSLRLSCAASGLTFRSYTMGWYRQAPGKERELVAAISSGGSTYYADSVKGRFTISRDNAKHTVYLKMNSRKPEDTAVYYCAAPRGHGKYYSWGQGTQVNVSS,high polyreactivity
9,QVQLVESGGGLVQAGGSLRLSCAASGLTFRSYTMGWYRQAPGTERELVAAISSGGSTYYADSVKGRFTISRDNAKNTVYLQMNSLKPEDTAVYYCAAPRGHGKYYSWGQGTQVTVSS,high polyreactivity
10,QVQLVESGGGLVQAGGSLRLSCAASGLTFRTYAMGWYRQAPGKERELVAAITWSGDSTYADSVKGRFTISRDNAKNTVYLQMNSLKPEDTAVYYCATKGYFSYHPYDYWGQGTQVTVSS,low polyreactivity
11,QVQLVESGGGLVQAGGSLRLSCAASGLTFRVYAMGWYRQAPGKERELVASISRTGSTTYADSVKGRFTISRDNAKNTVYLQMNSLKPEDTAVYYCNARYYVLLWDSLAREYWGQGTQVTVSS,high polyreactivity
12,QVQLVESGGGLVQAGGSLRLSCAASGLTFRWYALGWFRQATGKERELVAAISSGGRTYYADSVKGRFTISRDNANNTVYLQMNSRKPEDTAVYYCNKRTLDYGFGSYGREYWGQGTQVTVSS,high polyreactivity
13,QVQLVESGGGLVQAGGSLRLSCAASGLTFRWYAMGWYRQEPGKERELVAAISSSGNTNYADSVKGRFTISRDNAKNTVYLQMNSLKPGDSAVYYCAASYYSYPPGLSQTRLTYYYWGQGTQLTVSS,high polyreactivity
14,QVQLVESGGGLVQAGGSLRLSCAASGLTFRYNAMGWYRQAPGKERELVARISRNGGRTYYADSVKGRFTISRDNAKNTVYLQMNSLKPEDTAVYYCNVVYFVTTSPCYDYWGQGTQVTVSS,high polyreactivity
15,QVQLVESGGGLVQAGGSLRLSCAASGLTFRYYTMGWYRQAPGKERELVASITSGGITYYADSVKGRFTISRDNAKNTVYLQMNSLKPEDTAVYYCAKGSYRTTYGALGVKFGYWGQGTKVTVSS,high polyreactivity
16,QVQLVESGGGLVQAGGSLRLSCAASGLTFRYYTMGWYRQAPGNERELVASSTSGGITYYADSVKGRFTISRDNAKNTVYLQMNSLKPEDPAVYYCAKGSYRTTYGALGVKYGYWGQGTQVTVSS,high polyreactivity
17,QVQLVESGGGLVQAGGSLRLSCAASGLTFSCYAMGWYRQAPGKERELVASINYSGANTYYADSVKGRFTISRDNAKNTVYLQMNSLKPEDTAVYYCNTRRRRYQNERVTYDYWGQGTQVTVSS,high polyreactivity
18,QVQLVESGGGLVQAGGSLRLSCAASGLTFSDYAMGWYRQAPGKERELVAAITWRGTSTYYADSVKGRFTISRDNAKNTVYLQMNSLKPEDTAVYYCAARKYTGSGTRYYYWGQGTQVTVSS,high polyreactivity
19,QVQLVESGGGLVQAGGSLRLSCAASGLTFSDYTMGWYRQAPGKERELVAAISDSTGSTYYADSVKGRFTMSRDNAKNTVYLQMNSLKPEDTAVYNCIAYGYYHRLYSYTYGYWGQGTQVTVSS,low polyreactivity
20,QVQLVESGGGLVQAGGSLRLSCAASGLTFSGNTMGWYRQAPGKVRELVAAISSDGSTNYADSVKGRFTISRDNAKNTVYLQMNSLKPEDTAVYYCNARVRYYFAFWRDYWGQGTQVTVSS,low polyreactivity
21,QVQLVESGGGLVQAGGSLRLSCAASGLTFSKNAMGWYRQAPGKERELVATISYSSSRTNYADSVKGRFTISRDNAKNTVYLQMNSLKPEDTAVYYCAARVYKGWPTHYDYWGQGTQVTVSS,high polyreactivity
22,QVQLVESGGGLVQAGGSLRLSCAASGLTFSLNAMGWYRQAPGKERELVAAIRGSGGSTYYADSVKGRFTISRDNAKNTVYLQMNCLKPEDTAVYYCNADQLVWQRYGVLYEYDYWGQGTQVTVSS,high polyreactivity

row,Sequence,polyreactivity (PSR sort gate)
1,QVQLVESGGGLVQAGGSLRLSCAASGLTFSLYALGWYRQAPGKERELVAAISWTGGSTYYADSVKGRFSISRDNAKNTVYLQMKSLKPEDTAVDYCNARYTLFARYGYDYWGQGTQVTVSS,low polyreactivity
2,QVQLVESGGGLVQAGGSLRLSCAASGLTFSLYAMAWYRQAPGNESELVAANSWTGGSTYYADSVKGRFTISRDNAKNTVYLHMNSLKPEDTAVYYCNARYTLFARYGYDYWGQGTQVTVSS,low polyreactivity
3,QVQLVESGGGLVQAGGSLRLSCAASGLTFSNYAMGWYRQAPGKERELVAAISASGGSTYYADSVKGRFTISRDNAKNTVYLQMNSLKPEDTAVYYCAAATTRPVYPANDDYWGQGTQVTVSS,low polyreactivity
4,QVQLVESGGGLVQAGGSLRLSCAASGLTFSRNAMGGYRQAPGKERELVAGISVSGSITFYADSVKGRFTISRDNAKNTVYLQMNSLKPEDTAVYYCAARYRYRYTPSVTGYDYWGQGTQVTVSS,high polyreactivity
5,QVQLVESGGGLVQAGGSLRLSCAASGLTFSRNAMGWYRRAAGKERELVAAITKSGARTYYADSVKGRFTISRDNAKNTVYLQMNSLKPEDTAVYYCAADALNTYYYWGQGTQVTVSS,high polyreactivity
6,QVQLVESGGGLVQAGGSLRLSCAASGLTFSSYTMGWYRQAPGKERELVAAISSGGSTYYADSVKGRFTISRDNAKNTVYLQMNSLKPEDTAVYYCAAAFRYTPLSDHGYWGQGTQVTVSS,high polyreactivity
7,QVQLVESGGGLVQAGGSLRLSCAASGLTFSVYAMGWYREAPGKERELVAGITSSVGDTYYADSVKGRFTISRDNAKNTVYLQMNSLKPEDTAVYYCNAKYRTFVSKHDYWGQGTQLTVSS,low polyreactivity
8,QVQLVESGGGLVQAGGSLRLSCAASGLTFSVYTMGWYRQAPGKERELVAAITTSGGRTYYADSVKGRFTISRDNAKNTVYLQMNSLKPEDTAVYYCAAVRTGDTTGTMGYWGQGTQVTVSS,high polyreactivity
9,QVQLVESGGGLVQAGGSLRLSCAASGLTFSYYAMGWYRQAPGKERELVAAISGRGSTYYADSVKGRFTISRDNAKNTVYLQMNSLKPEDTAVYYCNAYGRFGLYDYWGQGTQVTVSS,high polyreactivity
10,QVQLVESGGGLVQAGGSLRLSCAASGLTFSYYARGWYRQAPGKERELVAAISWSGDSTYYADSVKGRFTISRDNAKNTVYVQMHSLKPEDTAVYYCAVVSDFYTPYTGWPFLDYEYWGQGTQVTVSS,low polyreactivity
11,QVQLVESGGGLVQAGGSLRLSCAASGLTFTLNAMGWYRQAPGKERELVATISQDGGGTTYADSVKGRFTISRDNAKNTVYLQMNSLKPEDTAVYYCATTLPPSVWGEWSGTRYPYDYWGQGTQVTVSS,low polyreactivity
12,QVQLVESGGGLVQAGGSLRLSCAASGLTFTTYAMGWYRQAPGKERELVAAISRRGSRTYYADSVKGRFTISRDNAKNTVYLQMNILKPEDTEVYYCNAMTGSFKTYSFDYWGHGTQVTVSS,high polyreactivity
13,QVQLVESGGGLVQAGGSLRLSCAASGLTFTWYTMGWYRQAPGKERELVAAITSGGSTNYADSVKGSFTISRDNAKNTVYLQMNSLKPEDTAVYYCAASRTFYWWEYGYWGQGTQVTVSS,high polyreactivity
14,QVQLVESGGGLVQAGGSLRLSCAASGLTFVANAMGWYRQAPGKERELVAAIDYGGGHTYYADSVKGRFTISRDYAKNTVYLQMNSLKPEDTAVYYCAVGLPHGGRRLYGSWYRFDYWGQGTQVTVSS,low polyreactivity
15,QVQLVESGGGLVQAGGSLRLSCAASGLTFVANAMGWYRQAPGKERELVAAISRRGTRTYYADSVKGRFTISRDNAKNTVYLQMNSLKPEDTAVYYCAAEYNSEYDYWGQGTQVTVSS,high polyreactivity
16,QVQLVESGGGLVQAGGSLRLSCAASGLTFVDNAMGWYRQAPGKERELVAAISYNGGSTYYADSVMGRFTISRDNAKNTVYLLMNSLKPEDTAVYYCAADISVGRYGDMDYWGQGTQVTVSS,low polyreactivity
17,QVQLVESGGGLVQAGGSLRLSCAASGLTFVDNAMGWYRQAPGKESELVAAITKRGGRTYYADSVKGRFTISRDNAKNTFYLQMNSLKPEDTAVYYCARESGNDSSRRLDYWGQGTQVTVSS,low polyreactivity
18,QVQLVESGGGLVQAGGSLRLSCAASGLTFVDYAMGWYRPAPGKERELVAGISYSGGSTYYADSVKGRFTISRDNAKNTVYLQMNSLKPEDTAVYYCAAKYRRPRYGYWGQGTQVTVSS,high polyreactivity
19,QVQLVESGGGLVQAGGSLRLSCAASGLTFVKNAMGWYRQAPGKDRELVATISSGGSTNYADSVKGRFTISRDNAKNTVYLQMNSLKPEDTAVYYCNKDITGVLLWIWWDRYDYWGQGTQVTVSS,high polyreactivity
20,QVQLVESGGGLVQAGGSLRLSCAASGLTFVPNAMGWYRQAPGKERELVAAISNNGGRTYYADSVKGRFTISRDNAKNTVYLQMNSLKPEDTAVYYCAKYLSPGERHSYDYWGQGTQVTVSS,high polyreactivity
21,QVQLVESGGGLVQAGGSLRLSCAASGLTFVQYAMGWYRQAPGKERELVAAISRNGGSTYYADSVKGRFTISRDNAKNTVYLQMNSLKPEDTAVYYCATRISYPWWAYDYWGQGTQVTVSS,high polyreactivity
